Data reported in patent US20080176209.

System: TL-3

## FIV protease (Feline Immunodeficiency Virus protease)
  enzymatic reaction activity in a kinetic FRET assay with a fluorogenic substrate peptide over a 20 minute time course: the enzymatic activity was blocked by TL-3
